# Measurements as given in doi:10.1101/2024.04.28.591520.
# T1: Mycobacterium tuberculosis polyketide synthase 13 (Mycobacterium tuberculosis), I6X8D2
# T1 chain: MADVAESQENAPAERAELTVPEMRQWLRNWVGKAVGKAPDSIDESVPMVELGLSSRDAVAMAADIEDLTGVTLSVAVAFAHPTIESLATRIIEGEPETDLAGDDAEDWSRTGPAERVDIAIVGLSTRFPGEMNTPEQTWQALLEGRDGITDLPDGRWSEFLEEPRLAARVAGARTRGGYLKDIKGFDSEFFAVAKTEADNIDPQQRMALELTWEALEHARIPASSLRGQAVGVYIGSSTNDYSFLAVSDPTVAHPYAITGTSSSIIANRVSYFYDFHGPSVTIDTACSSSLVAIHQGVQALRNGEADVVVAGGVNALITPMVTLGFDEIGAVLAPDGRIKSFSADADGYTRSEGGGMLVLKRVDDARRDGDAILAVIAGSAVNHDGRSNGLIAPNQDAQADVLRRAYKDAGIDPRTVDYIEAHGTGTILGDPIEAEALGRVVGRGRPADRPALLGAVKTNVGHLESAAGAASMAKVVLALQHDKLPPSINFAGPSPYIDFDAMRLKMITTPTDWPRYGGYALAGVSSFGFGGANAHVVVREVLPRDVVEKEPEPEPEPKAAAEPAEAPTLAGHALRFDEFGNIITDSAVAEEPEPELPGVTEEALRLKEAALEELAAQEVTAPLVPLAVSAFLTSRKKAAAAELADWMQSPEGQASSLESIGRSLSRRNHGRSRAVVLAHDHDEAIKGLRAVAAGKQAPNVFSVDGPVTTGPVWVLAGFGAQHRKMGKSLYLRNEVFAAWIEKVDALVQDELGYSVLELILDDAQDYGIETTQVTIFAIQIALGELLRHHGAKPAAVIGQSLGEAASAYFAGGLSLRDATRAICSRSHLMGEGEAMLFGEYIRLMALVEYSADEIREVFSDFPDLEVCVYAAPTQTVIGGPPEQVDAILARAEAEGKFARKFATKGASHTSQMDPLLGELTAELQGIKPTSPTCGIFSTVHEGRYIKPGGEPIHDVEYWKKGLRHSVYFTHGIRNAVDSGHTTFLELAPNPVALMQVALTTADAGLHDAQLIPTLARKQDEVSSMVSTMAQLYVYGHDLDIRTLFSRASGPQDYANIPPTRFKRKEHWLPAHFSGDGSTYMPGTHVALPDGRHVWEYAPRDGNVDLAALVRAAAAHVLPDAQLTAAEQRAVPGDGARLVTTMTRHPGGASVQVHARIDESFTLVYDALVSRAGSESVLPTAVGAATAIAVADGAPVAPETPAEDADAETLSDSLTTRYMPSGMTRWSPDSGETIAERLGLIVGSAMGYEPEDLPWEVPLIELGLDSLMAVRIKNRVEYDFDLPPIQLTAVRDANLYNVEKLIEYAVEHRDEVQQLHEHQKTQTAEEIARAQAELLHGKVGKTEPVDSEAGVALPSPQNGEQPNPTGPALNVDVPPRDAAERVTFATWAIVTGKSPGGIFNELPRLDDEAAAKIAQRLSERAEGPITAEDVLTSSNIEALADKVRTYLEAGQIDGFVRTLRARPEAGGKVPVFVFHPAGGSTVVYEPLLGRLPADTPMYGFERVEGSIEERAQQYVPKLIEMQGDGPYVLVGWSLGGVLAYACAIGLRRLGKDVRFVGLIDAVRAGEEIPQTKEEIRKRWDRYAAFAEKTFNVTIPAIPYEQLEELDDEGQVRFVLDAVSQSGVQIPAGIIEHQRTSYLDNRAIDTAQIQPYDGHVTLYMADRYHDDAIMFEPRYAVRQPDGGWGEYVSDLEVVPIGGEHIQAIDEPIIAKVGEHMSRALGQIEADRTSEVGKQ
# B1: Mycobacterium tuberculosis polyketide synthase 13, I6X8D2 1-1733 (enzyme)
# chain: T1 chain
# Biological target: T1, Mycobacterium tuberculosis polyketide …
# Assay: AUC
# Conditions: remark: other sources report otherwise
binder,measurement,value
B1,stoichiometry N,2
